Measurements: patent publication US20180127503A1 (EUREKA THERAPEUTICS, published 2018)

What was measured:
[1] = molecular target: T1, human ROR2 expressed on the cell surface (human, UniProt Q01974 34-943); assay: flow cytometry, HTB63 cells (melanoma); design: unit not given here
T1 construct: Endogenous ROR2 of human tumour cell lines; also called cell surface ROR2; ROR2 on tumour cell lines
Method: (§1) Human tumour cell lines were authenticated using short tandem repeat (STR) analysis. They were cultured in RPMI1640 (Cellgro) supplemented with 10% fetal bovine serum (FBS, Life Technologies) at 37° C. in a 5% CO₂ humidified incubator. They were harvested, washed in PBS and reacted with ROR2-IgG at 1 ug/10⁶ tumour cells on ice for an hour. #901-IgG was used as a negative control at the same dose. After washing, a secondary PE-conjugated goat anti-human IgG, Fcγ fragment specific (1:100, Jackson ImmunoResearch) was added for another 30 min incubation. Staining was analyzed on a FACSCalibur (BD Biosciences). ROR2 (full length) antibody binding towards multiple cancer cell lines were compared with Rituxan and Herceptin antibodies. The cancer cell lines were derived from breast cancer, colorectal cancer, mesothelioma, hepatocellular carcinoma, ovarian cancer, osteosarcoma, neuroblastoma, etc. ROR2 #90 antibody could recognize most of the tumour cells tested, and in some cases, the binding intensity was higher than Herceptin (see Tables 8 to 10).

[2] = molecular target: T1, human ROR2 expressed on the cell surface; assay: flow cytometry, NCI-H2052 cells (mesothelioma); design: reference not given here
Method: as §1

[3] = molecular target: T1, human ROR2 expressed on the cell surface; assay: flow cytometry, JN DSRCT cells (DSRCT); design: unit not given here
Method: as §1

[4] = molecular target: T1, human ROR2 expressed on the cell surface; assay: flow cytometry, M14 cells (melanoma); design: reference not given here
Method: as §1

[5] = molecular target: T1, human ROR2 expressed on the cell surface; assay: flow cytometry, HTB27 cells (breast CA); design: unit not given here
Method: as §1

[6] = molecular target: T2, human ROR2 extracellular domain (ROR2 ECD recombinant protein) (human, UniProt Q01974 34-403); assay: kinetic binding analysis, full length IgG1 on human ROR2-ECD
T2 construct: also called human ROR2-ECD; hROR2-ECD
T2 sequence (Q01974 34-403): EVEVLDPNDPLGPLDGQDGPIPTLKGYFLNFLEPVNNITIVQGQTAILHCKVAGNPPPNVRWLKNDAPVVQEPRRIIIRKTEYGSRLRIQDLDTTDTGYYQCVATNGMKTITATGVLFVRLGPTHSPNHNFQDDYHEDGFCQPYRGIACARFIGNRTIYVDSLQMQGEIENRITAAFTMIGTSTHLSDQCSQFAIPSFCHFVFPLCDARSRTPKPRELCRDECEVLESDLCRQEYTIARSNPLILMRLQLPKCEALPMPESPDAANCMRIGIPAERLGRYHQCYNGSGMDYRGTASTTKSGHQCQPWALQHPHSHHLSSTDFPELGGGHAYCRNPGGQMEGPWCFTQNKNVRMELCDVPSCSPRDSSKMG

[7] = molecular target: T1, human ROR2 expressed on the cell surface; assay: flow cytometry, HTB26 (MDA-MB-231) cells (breast CA); design: unit not given here
Method: as §1

[8] = molecular target: T1, human ROR2 expressed on the cell surface; assay: flow cytometry, SKHEP-1 cells (HCC); design: unit not given here
Method: as §1

[9] = molecular target: T1, human ROR2 expressed on the cell surface; assay: flow cytometry, TC71 cells (EW/PNET); design: unit not given here
Method: as §1

[10] = molecular target: T1, human ROR2 expressed on the cell surface; assay: flow cytometry, SKBR3 cells (breast CA); design: reference not given here
Method: as §1

[11] = molecular target: T1, human ROR2 expressed on the cell surface; assay: flow cytometry, OCM1 cells (melanoma); design: unit not given here
Method: as §1

[12] = molecular target: T1, human ROR2 expressed on the cell surface; assay: flow cytometry, HTB37-Caco2 cells (CRC); design: unit not given here
Method: as §1

[13] = molecular target: T1, human ROR2 expressed on the cell surface; assay: flow cytometry, NB5 cells (neuroblastoma); design: unit not given here
Method: as §1

[14] = molecular target: T1, human ROR2 expressed on the cell surface; assay: flow cytometry, H69 cells (SCLC); design: unit not given here
Method: as §1

[15] = molecular target: T1, human ROR2 expressed on the cell surface; assay: flow cytometry, SKMEL28 cells (melanoma); design: reference not given here
Method: as §1

[16] = molecular target: T1, human ROR2 expressed on the cell surface; assay: flow cytometry, HEP G2 cells (HCC); design: unit not given here
Method: as §1

[17] = molecular target: T1, human ROR2 expressed on the cell surface; assay: flow cytometry, SKOV3 cells (ovarian CA); design: unit not given here
Method: as §1

[18] = molecular target: T1, human ROR2 expressed on the cell surface; assay: flow cytometry, RG187 cells (osteosarcoma); design: unit not given here
Method: as §1

[19] = molecular target: T1, human ROR2 expressed on the cell surface; assay: flow cytometry, COLO 205 cells (CRC); design: unit not given here
Method: as §1

[20] = molecular target: T1, human ROR2 expressed on the cell surface; assay: flow cytometry, LAN-1 cells (neuroblastoma); design: unit not given here
Method: as §1

[21] = molecular target: T1, human ROR2 expressed on the cell surface; assay: flow cytometry, OUMS 27 cells (chondrosarcoma); design: unit not given here
Method: as §1

[22] = molecular target: T1, human ROR2 expressed on the cell surface; assay: flow cytometry, CHP100 cells (EW/PNET); design: unit not given here
Method: as §1

[23] = molecular target: T1, human ROR2 expressed on the cell surface; assay: flow cytometry, SKNMM cells (neuroblastoma); design: unit not given here
Method: as §1

[24] = molecular target: T1, human ROR2 expressed on the cell surface; assay: flow cytometry, SKNSH cells (neuroblastoma); design: unit not given here
Method: as §1

[25] = molecular target: T1, human ROR2 expressed on the cell surface; assay: flow cytometry, BE(2)S cells (neuroblastoma); design: unit not given here
Method: as §1

[26] = molecular target: T1, human ROR2 expressed on the cell surface; assay: flow cytometry, AU565 cells (breast CA); design: unit not given here
Method: as §1

[27] = molecular target: T1, human ROR2 expressed on the cell surface; assay: flow cytometry, BE(1)N cells (neuroblastoma); design: unit not given here
Method: as §1

T1 sequence (Q01974 34-943 limits assumed): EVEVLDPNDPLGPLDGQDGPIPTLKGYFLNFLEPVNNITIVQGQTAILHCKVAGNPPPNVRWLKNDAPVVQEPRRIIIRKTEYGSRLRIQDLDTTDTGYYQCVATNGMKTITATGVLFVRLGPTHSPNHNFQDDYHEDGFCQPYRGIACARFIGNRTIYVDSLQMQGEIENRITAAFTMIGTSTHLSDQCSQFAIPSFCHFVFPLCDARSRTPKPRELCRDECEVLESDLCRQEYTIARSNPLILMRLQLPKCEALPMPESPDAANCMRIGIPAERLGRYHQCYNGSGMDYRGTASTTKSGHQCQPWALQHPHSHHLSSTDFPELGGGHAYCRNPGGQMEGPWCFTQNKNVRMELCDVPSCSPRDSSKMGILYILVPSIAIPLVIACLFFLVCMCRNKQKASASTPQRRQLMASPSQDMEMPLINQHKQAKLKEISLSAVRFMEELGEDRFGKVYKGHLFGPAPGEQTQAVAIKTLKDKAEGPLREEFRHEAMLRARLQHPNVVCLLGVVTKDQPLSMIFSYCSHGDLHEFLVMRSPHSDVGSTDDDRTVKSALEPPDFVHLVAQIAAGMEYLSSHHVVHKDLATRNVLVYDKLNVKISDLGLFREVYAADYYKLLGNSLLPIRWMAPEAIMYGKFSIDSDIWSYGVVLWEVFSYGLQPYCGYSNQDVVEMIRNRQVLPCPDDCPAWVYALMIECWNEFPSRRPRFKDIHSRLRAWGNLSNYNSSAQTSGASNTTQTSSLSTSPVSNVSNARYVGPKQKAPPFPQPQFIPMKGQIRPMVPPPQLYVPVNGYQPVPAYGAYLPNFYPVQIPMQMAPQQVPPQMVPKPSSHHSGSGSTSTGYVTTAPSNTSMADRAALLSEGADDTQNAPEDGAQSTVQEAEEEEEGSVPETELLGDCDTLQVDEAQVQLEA

| Binder | binding intensity [1] | binding intensity [2] | binding intensity [3] | binding intensity [4] | binding intensity [5] | Kd [6] | koff [6] | kon [6] | binding intensity [7] | binding intensity [8] | binding intensity [9] | binding intensity [10] | binding intensity [11] | binding intensity [12] | binding intensity [13] | binding intensity [14] | binding intensity [15] | binding intensity [16] | binding intensity [17] | binding intensity [18] | other results |
| --- | --- | --- | --- | --- | --- | --- | --- | --- | --- | --- | --- | --- | --- | --- | --- | --- | --- | --- | --- | --- | --- |
| ROR2-23 full length human IgG1 antibody (antibody, V domains shown, The light chain of clone 023 is labelled kappa; also called clone #23; clone #023 IgG1) VH: EVQLVQSGAEVKKPGESLKISCQGSGYRFSKYWIGWVRQMPGKGLEWMGIIYPGDSDTRYSPSFQGQVTISADKSISTAYLQWSSLKASDTAMYYCARSFSSFIYDYWGQGTLVTVSS VL: ETTLTQSPGTLSVSPGERATLSCRASQSVSSNLAWYQQKRGQAPRLLIYGASTRATGIPVRFSGSGSGTEFTLTISRLEPEDFAVYYCQQYGRSPLTFGGGTKVDIKR | 16 | 65 | 50 | 9 | 58 | 0.164 nM | 0.000432 s⁻¹ | 2.63e+06 M⁻¹ s⁻¹ | 11 | 42 | 46 | 48 | 10 | 37 | 32 | 9 | 20 | 30 | 116 | 44 | binding intensity [19]: 26; binding intensity [20]: 34; binding intensity [21]: 71; binding intensity [22]: 30; binding intensity [23]: 77; binding intensity [24]: 170; binding intensity [25]: 26; binding intensity [26]: 102; binding intensity [27]: 273 |
| ROR2-27 full length human IgG1 antibody (antibody, V domains shown, also called clone #27; clone #027 IgG1) VH: QVQLVESGAEVKKPGESLKISCKASGYSFSNYWIGWVRQMPGKGLEWMGIIYPDDSDTRYSPSFQGQVTISADKSISTAYLQWYSLKVADTAKYYCVRPRGAFDIWGQGTTVTVSS VL: QSVLTQPPSVSGAPGQRVTISCTGSSSNIGAGHAVHWYQQLPGTAPKLLIYDNANRPSGVPDRFSGSQSGTSASLAITGLQTGDEADYYCGTWDDSPSAYVFGTGTKVTVLG | 8 | 46 | 5 | 5 | 11 | 0.715 nM | 0.000608 s⁻¹ | 851000 M⁻¹ s⁻¹ | 7 | 23 | 21 | 15 | 6 | 13 | 20 | 24 | 8 | 11 | 36 | 19 | binding intensity [19]: 7; binding intensity [20]: 28; binding intensity [21]: 48; binding intensity [22]: 18; binding intensity [23]: 69; binding intensity [24]: 8; binding intensity [25]: 21; binding intensity [26]: 8; binding intensity [27]: 244 |

Further binders by falling Kd [6], results first:

| binding intensity [1] | binding intensity [2] | binding intensity [3] | binding intensity [4] | binding intensity [5] | Kd [6] | koff [6] | kon [6] | binding intensity [7] | binding intensity [8] | binding intensity [9] | binding intensity [10] | binding intensity [11] | binding intensity [12] | binding intensity [13] | binding intensity [14] | binding intensity [15] | binding intensity [16] | binding intensity [17] | binding intensity [18] | Binder | other results |
| --- | --- | --- | --- | --- | --- | --- | --- | --- | --- | --- | --- | --- | --- | --- | --- | --- | --- | --- | --- | --- | --- |
| 16 | 43 | 27 | 12 | 24 | 0.31 nM | 0.000538 s⁻¹ | 1.74e+06 M⁻¹ s⁻¹ | 23 | 53 | 12 | 27 | 19 | 24 | 56 | 131 | 20 | 36 | 42 | 29 | ROR2-241 full length human IgG1 antibody (antibody, V domains shown) VH: EVQLVQSGAEVKKPGASVKVSCKASGYTFTNYYIHWVRQAPGQGLEWMGIINPTSGRTRYAQRFQGRVTMTRDTSTNTVYMDLSSLRSEDTAMYYCARSGYYWGVNGDQWGQGTLVTVSS VL: SYELTQPLSVSVALGQTARITCGGNNIGSKNVHWYQQKPGQAPVLVIYRDSNRPSGIPERFSGSNSGNTATLTISRAQAGDEADYYCQVWDSSIVVFGGGTKLTVLG | binding intensity [19]: 24; binding intensity [20]: 68; binding intensity [21]: 53; binding intensity [22]: 16; binding intensity [23]: 126; binding intensity [24]: 141; binding intensity [25]: 58; binding intensity [26]: 83; binding intensity [27]: 352 |
| 5 | 8 | 3 | 4 | 7 | 0.063 nM | 4.45e-05 s⁻¹ | 706000 M⁻¹ s⁻¹ | 4 | 21 | 10 | 5 | 3 | 6 | 17 | 9 | 4 | 4 | 5 | 4 | ROR2-240 full length human IgG1 antibody (antibody, V domains shown, also called clone #240 IgG1) VH: QITLKESGPELVKPTQTLTLTCTFSGFSLSTSGMSVSWIRQPPGKALEWLARIDWDDDKYYSTSLKTRLTISKDTSKNQVVLTMTNTDPVDTATYYCARGFYLAYGSYDSWGQGTLVTVSS VL: QSALTQPASVSGSPGQSITISCTGTSGDVGGYNYVSWYQHHPGKAPKLIIYDVNKRPSGFSDRFSGSKSGNTASLTISGLQAEDEADYYCSSYTSTSTVFGGGTKLTVLG | binding intensity [19]: 4; binding intensity [20]: 37; binding intensity [21]: 6; binding intensity [22]: 7; binding intensity [23]: 84; binding intensity [24]: 113; binding intensity [25]: 26; binding intensity [26]: 4; binding intensity [27]: 279 |
